Experiment: soluble on expression in E. coli; label from the status in PepcDB or PDB records

Row | Sequence | soluble on expression in E. coli
1 | MGSDKIHHHHHHLAQLYFYYSSMNAGKSTSLLQSSYNYRERGMNTLVMTASIDDRYGKGKVASRIGIETEAQVFSSQDDLTQMISDVHQATPLSCVLVDECQFLSKEQVKQLTHVVDNIDIPVLCYGLRTDFQGELFSGSHYLLAWADKLVELKTICHCGRKANMVVRLDGDGKVMREGEQVAIGGNESYESVCRKHFREFIWD | not soluble
2 | MNEILKCIGCGAPLQSENKDAPGYVPEHNMFREDVICRRCFRLKNYNEVQDVGMESEDFLNLLTGLSEKKGIIVNVVDVFDFEGSFINAIQRIVGNKKIILVANKIDLLPKQINHRRVKEWLRKSARKYGLEAEDVVLISANKGWGIDELLQSINHVRNKDDVYIVGTTNVGKSTLINKLIEQSVGEKDVVTTSRFPGTTLDMIDIPLDEKSFMFDTPGIIQSHQMTNYVSENELKIIIPKNEIKQRVYQLNEKQTLFFGGLARIDYVSGGKRPLVCFFSNDLNIHRTKTEKANDLWKSQLGALLSPPQDAQQFNLNDVKAVRLETGKTKRDIMISGLGFITIDAGAKVIVRVPKHVDVILRNSILLEHHHHHH | soluble
3 | MRILGLDLGTKTLGVALSDEMGWTAQGIETIKINEAEGDYGLSRLSELIKDYTIDKIVLGFPKNMNGTVGPRGEASQTFAKVLETTYNVPVVLWDERLTTMAAEKMLIAADVSRQKRKKVIDKMAAVMILQGYLDSLNLEHHHHHH | not soluble
4 | MAHHHHHHMDDERTTAAGRITSTNVREEEPSITVPCELDTHIEQHERRKRGRVWTAEEQAAYWREKKEKQRQRKKAAAAERREMQQKEWEALSQSERERRRAEAIAVHEKRRGAEMRLQQLCQEHLADAKLPVLVFDLSFAWCMNASDCRSTVSQVKLSYSALRRHAFPLRPVITSIGGSADGEMACAHSDVLQSLCTFNGFSRYPLPVHENHWSSLYDLQRVVFLTADAEVVLERIEQGTVYIVGAFVDHNARKFLTRDAAIRYGVRMARLPIDESIKVGNICKVLTVNHVVDVLCRYTECGDWSTAFDVLPTRRTVSRRERRTNAHISMSSNTVFGECDSVDTDETGGTTRVASGQAD | not soluble
5 | MGSDKIHHHHHHLSADHNAFRRALTERWGKAFGEPVIHEDPRTRSLCFGAPGVQSSMRTSDPLELDLPYTRAMMSFQLFCPDPKDILIVGLGGGSLSKYCFHKFPSARVTTVEIDERVIALRDAFFIPPESERFRIVHADAAAYLPDKVGLADVILLDGFDASGLPASLSSQYFYDCCHAALRDEGVLVANLLSSDPRLGAHLDRIHRACHGKLFRTMARREGNTIAIGIRQATWPGWPDLYARAEAITASTGLDLCRYVKKMERHHRVEPVSEHPSSDTLAVEQNR | not soluble
6 | GAEKEDLVQEGILGLLKAIKFYDETKSSFSSFAFLCIRREMISAIRKANTQKHMVLNEALKTNAILEDSAYFDDEGHNINNYKSSESNPEEAYLLKEEIEEFKKFSENNFSKFEKEVLTYLIRGYSYREIATILSKNLKSIDNTIQRIRKKSEEWIKEEENIKR | soluble
7 | MTTQTIKFHMKPETFKQNAAISLQDKPLRKSLRTAMDMLMTKRKAVLTDEEELQSLRDLCEHVRQRSLSKLPALLEQLEENLTKLGVKVHWAETPTEACQIIHDIITAKNGKLMVKGKSMVSEEIELNHYLEAKGIKAVESDLGEFIVQMAGEKPTHIVMPAIHKTKEQVSELFHQNLGTPLTDDVDQLTGFARKALRDIYSTADVGLSGVNFAVAETGTLCLVENEGNGRLSTTVPPVHIAITGIEKVVAKLSDIPPLYSLLPRSAIGQNITTYFNMITGPRRSEELDGPQEMHLVLLDNGRSQAYAEDQMRRTLQCIRCGACMNHCPVYTRIGGAAYGTTYPGPIGEIISPHLLGLDATRDLPTACTMCGACVEVCPVRIPITEQMQRLRVEAQRSPTETVPHPIRGQGASHTFGEQMAWRTFNGIFSGSKTYRAFGWAATKFRNLTPRKQLGWTQNRVPMKPAKKTLHELMAEKMRQKEQA | not soluble
8 | SLRKVGLTALEWLKQHPEIKQHKESSLYEQLFASQQWQQAQTIGMIRSLPLELSTQPIFERAMQESKQVAVPRTFKGGKMHFYQVFPETVYDTSAFGVEEPPLTAAEITATAIDLLIVPGIVFNRAGYRIGFGGGFYDRYLEHFSGHSCSLVFSEQLHEQWQPEAFDQPIEQLFIQ | soluble
9 | MEIERKFLVLNDDFKAKATAVHNIIQAYLVADERCTVRIRLCNDEAYLTIKGKTNEGGLSRSEYEYSVPFEEAKEMLTLCLPGYIMKQRYCVPHKGHVWEVDVFEGRHKGLVIAEVELATEDESIELPDWIGNEVTGDKRYYNSFIAGIQK | soluble
